B1: Double-strand break repair protein rad32 (Schizosaccharomyces pombe (strain ATCC 38366 / 972)), Q09683 (parent)
chain: MPNDPSDMNNELHNENTIRILISSDPHVGYGEKDPVRGNDSFVSFNEILEIARERDVDMILLGGDIFHDNKPSRKALYQALRSLRLNCLGDKPCELELLSDTSLTTGDTAVCNINYLDPNINVAIPVFSIHGNHDDPSGDGRYSALDILQVTGLVNYFGRVPENDNIVVSPILLQKGFTKLALYGISNVRDERLYHSFRENKVKFLRPDLYRDEWFNLLTVHQNHSAHTPTSYLPESFIQDFYDFVLWGHEHECLIDGSYNPTQKFTVVQPGSTIATSLSPGETAPKHCGILNITGKDFHLEKIRLRTVRPFIMKDIILSEVSSIPPMVENKKEVLTYLISKVEEAITEANAQWYEAQGTVPVVENEKPPLPLIRLRVDYTGGYQTENPQRFSNRFVGRVANATDVVQFYLKKKYTRSKRNDGLYTSAVEDIKINSLRVESLVNEYLKTNRLECLPEDSLGEAVVNFVEKDDRDAIKECVETQLNKQINLLVKKRVTEENLEQEISSIINDLPKISTTKRKDYEELPEEVSETSINIAEHTPVLKHTSSLLDHHSPLATSSSEHEMEATPSPALLKKTNKRRELPSSLTKKNTRTPQRSKEVKKVPARKLSQSTKKSDKNTQSTLLFYDPSSTTEAQYLDNEDDEILDD
partner: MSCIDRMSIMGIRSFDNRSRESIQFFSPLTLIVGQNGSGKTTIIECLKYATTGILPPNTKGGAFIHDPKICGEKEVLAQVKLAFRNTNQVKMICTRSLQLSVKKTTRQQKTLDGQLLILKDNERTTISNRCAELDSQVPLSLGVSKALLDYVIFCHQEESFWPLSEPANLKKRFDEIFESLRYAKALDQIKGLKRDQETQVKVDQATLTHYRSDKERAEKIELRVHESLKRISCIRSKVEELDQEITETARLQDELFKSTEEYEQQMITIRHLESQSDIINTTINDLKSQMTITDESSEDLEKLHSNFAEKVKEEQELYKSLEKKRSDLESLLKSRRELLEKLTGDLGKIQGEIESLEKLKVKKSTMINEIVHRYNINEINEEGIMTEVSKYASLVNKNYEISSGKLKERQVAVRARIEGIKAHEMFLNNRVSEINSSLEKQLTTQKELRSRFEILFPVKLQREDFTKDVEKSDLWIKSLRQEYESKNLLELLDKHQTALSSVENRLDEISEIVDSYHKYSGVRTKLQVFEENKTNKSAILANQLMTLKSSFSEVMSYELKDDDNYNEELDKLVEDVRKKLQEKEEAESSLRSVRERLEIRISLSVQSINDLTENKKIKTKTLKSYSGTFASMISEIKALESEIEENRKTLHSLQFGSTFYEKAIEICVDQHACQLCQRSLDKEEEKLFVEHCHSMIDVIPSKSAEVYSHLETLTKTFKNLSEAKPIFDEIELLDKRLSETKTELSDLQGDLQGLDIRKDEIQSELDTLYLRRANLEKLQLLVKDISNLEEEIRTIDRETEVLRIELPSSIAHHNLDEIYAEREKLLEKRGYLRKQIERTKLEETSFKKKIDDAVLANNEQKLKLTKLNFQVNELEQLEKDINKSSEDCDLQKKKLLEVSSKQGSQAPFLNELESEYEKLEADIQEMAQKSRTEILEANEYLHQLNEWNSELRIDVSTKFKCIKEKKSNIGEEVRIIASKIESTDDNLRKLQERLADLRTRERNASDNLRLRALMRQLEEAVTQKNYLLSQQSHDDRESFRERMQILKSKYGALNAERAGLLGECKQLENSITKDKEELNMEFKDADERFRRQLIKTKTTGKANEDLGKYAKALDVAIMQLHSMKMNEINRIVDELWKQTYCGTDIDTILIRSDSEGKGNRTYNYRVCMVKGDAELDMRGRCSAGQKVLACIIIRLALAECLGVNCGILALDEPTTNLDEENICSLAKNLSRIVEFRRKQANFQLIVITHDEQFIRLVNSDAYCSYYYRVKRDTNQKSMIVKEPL

Variants of: B1
Details: with rad50_schpo rad50, Q9UTJ8

Effect of a mutation on the interaction, disrupting interaction:
C454R;L455R;C479R;V480R
C454R;L455R
C479R;V480R

Source: IntAct's records for PubMed 21441914
